biological target: T1, Hmm-hTFRC (REGN2431), monomeric human transferrin receptor ectodomain with N-terminal hexahistidine-myc-myc … (human, UniProt P02786 89-760); assay: blocking ELISA, supernatant; Hmm-hTFRC binding to immobilized human holo-Tf
T1 construct: also called hmm.hTfR(C89-F763); His-myc-myc-hTFRC ecto
Protocol: In the blocking assay, the anti-human Transferrin goat IgG polyclonal antibody (anti-hTf pAb) was passively absorbed at a concentration of 2 micrograms/mL in PBS on a 96-well microtiter plate overnight at 4° C. […] To the same plate, human holo-Tf was then added at a concentration of 1 micrograms/mL in PBS+0.5% BSA for 2 hours at room temperature. […] After a 1-hour incubation, the mixtures were transferred to the human holo-Tf microtiter plates. […] The plates were developed using TMB substrate solution according to the manufacturer's recommended procedure and absorbance at 450 nm was measured on a Victor™ Multilabel Plate Reader.
The ability of the anti-TfR antibody to block human TFRC binding to human holo-Tf was evaluated using an ELISA-based blocking assay.

T1 sequence (P02786 other isoform, or with tags, fused parts or gaps): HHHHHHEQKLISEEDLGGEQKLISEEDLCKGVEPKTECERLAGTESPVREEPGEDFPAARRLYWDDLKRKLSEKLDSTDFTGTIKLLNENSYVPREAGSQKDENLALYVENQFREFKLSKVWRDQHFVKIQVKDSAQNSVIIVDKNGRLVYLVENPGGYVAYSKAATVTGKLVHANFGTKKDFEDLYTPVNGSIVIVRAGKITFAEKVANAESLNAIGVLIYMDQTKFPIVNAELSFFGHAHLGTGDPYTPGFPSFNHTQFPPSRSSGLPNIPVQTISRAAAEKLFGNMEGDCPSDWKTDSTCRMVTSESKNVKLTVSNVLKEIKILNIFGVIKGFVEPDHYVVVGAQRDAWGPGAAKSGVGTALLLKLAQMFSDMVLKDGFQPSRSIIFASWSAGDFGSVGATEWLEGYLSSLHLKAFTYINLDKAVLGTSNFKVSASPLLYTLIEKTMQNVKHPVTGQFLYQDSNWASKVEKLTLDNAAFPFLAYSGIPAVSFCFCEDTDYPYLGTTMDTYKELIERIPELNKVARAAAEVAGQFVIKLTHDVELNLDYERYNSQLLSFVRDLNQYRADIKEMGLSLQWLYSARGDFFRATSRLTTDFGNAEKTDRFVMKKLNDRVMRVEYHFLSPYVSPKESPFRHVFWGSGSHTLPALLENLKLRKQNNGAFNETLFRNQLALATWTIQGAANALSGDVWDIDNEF

Binder | % Blocking [%]
12795B scFv (VK-VH) (scFv, CHO supernatant; Vk-3xG4S-Vh) scFv: DIQMTQSPSSLSASVGDRVTITCRASQGIRDHFGWYQQKPGKAPKRLIYAASSLHSGVPSRFSGSGSGTEFTLTISSLQPEDFATYYCLQYDTYPLTFGGGTKVEIKGGGGSGGGGSGGGGSEVQLVESGGGLVQPGGSLRLSCATSGFTFTSYDMKWVRQAPGLGLEWVSAISGSGGNTYYADSVKGRFTISRDNSRNTLYLQMNSLRAEDTAVYYCTRSHDFGAFDYFDYWGQGTLVTVSS | 23
12801B scFv (VH-VK) (scFv) EVQLLESGGALVQPGGSLRLSCAASGFTFTSYAMHWVRQAPGKGLEWVSSIRGSGGGTYSADSVKGRFTISRDNSRDTLYLQMNSVRAEDTAVYYCARSHDYGAFDFFDYWGQGTLVTVSSDIQMTQSPSSLSASVGDRVTITCRASQGIRTDLGWYQQKPGKAPKRLIYAASSLQSGVPSRFSGSGSGTEFTLTISSLRPEDFATFYCLQYNSYPLTFGGGTKVEIK | 37
12795B scFv (VH-VK) (scFv) EVQLVESGGGLVQPGGSLRLSCATSGFTFTSYDMKWVRQAPGLGLEWVSAISGSGGNTYYADSVKGRFTISRDNSRNTLYLQMNSLRAEDTAVYYCTRSHDFGAFDYFDYWGQGTLVTVSSDIQMTQSPSSLSASVGDRVTITCRASQGIRDHFGWYQQKPGKAPKRLIYAASSLHSGVPSRFSGSGSGTEFTLTISSLQPEDFATYYCLQYDTYPLTFGGGTKVEIK | 45
12802B Fab (Fab, V domains shown, CHO supernatant) VH: QVQLVESGGGLVKPGGSLRLSCAASGFTFSDYFMSWIRQAPGKGLEWVSYISSTGSTINYADSVKGRFTISRDNVKNSLYLQMTSLRVEDTAVYYCTRDNWNYEYWGQGTLVTVSS VL: EIVMTQSPATLSVSPGERATLSCRASQSVSINLAWYQQKPGQAPRLLIFVASTRATGIPARFSGSGSGTEFTLTISSLQSEDFATYYCQQYDIWPYTFGQGTKLEIKR | 15
12801B scFv (VK-VH) (scFv, CHO supernatant; Vk-3xG4S-Vh) scFv: DIQMTQSPSSLSASVGDRVTITCRASQGIRTDLGWYQQKPGKAPKRLIYAASSLQSGVPSRFSGSGSGTEFTLTISSLRPEDFATFYCLQYNSYPLTFGGGTKVEIKGGGGSGGGGSGGGGSEVQLLESGGALVQPGGSLRLSCAASGFTFTSYAMHWVRQAPGKGLEWVSSIRGSGGGTYSADSVKGRFTISRDNSRDTLYLQMNSVRAEDTAVYYCARSHDYGAFDFFDYWGQGTLVTVSS | 27
12808B Fab (Fab, V domains shown, CHO supernatant) VH: QLQLQESGPGLVKPSETLSLTCTVSGESISSNTYYWGWIRQPPGKGLEWIGSIDYSGTTNYNPSLKSRVTISVDTSRNHFSLRLRSVTAADTAVYYCAREWGNYGYYYGMDVWGQGTTVTVSS VL: DIQMTQSPSSLSASVGDRVTINCRASQGIRNDLGWYQQKPGKAPKRLIYAASSLQSGVPLRFSGSGSGTEFTLTINNLQPEDFATYYCLSHNSYPWTFGQGTKVEIKR | 16
12799B scFv (VK-VH) (scFv, CHO supernatant; Vk-3xG4S-Vh) scFv: DIQMTQSPSSVSASVGDRVTITCRASQGIASWLAWYQQKPGKAPELLIYAASSLQGGVPSRFSGSGSGTDFTLTISSLQPEDFAIYYCQQANYFPWTFGQGTKVEIKGGGGSGGGGSGGGGSQITLKESGPTLVKPTQTLTLTCTFSGFSLSTSGVGVVWIRQPPGKALEWLALIYWNDHKRYSPSLGSRLTITKDTSKNQVVLTMTNMDPVDTATYYCAHYSGSYSYYYYGLDVWGQGTTVTVSS | 10
12802B scFv (VK-VH) (scFv, CHO supernatant; Vk-3xG4S-Vh) scFv: EIVMTQSPATLSVSPGERATLSCRASQSVSINLAWYQQKPGQAPRLLIFVASTRATGIPARFSGSGSGTEFTLTISSLQSEDFATYYCQQYDIWPYTFGQGTKLEIKGGGGSGGGGSGGGGSQVQLVESGGGLVKPGGSLRLSCAASGFTFSDYFMSWIRQAPGKGLEWVSYISSTGSTINYADSVKGRFTISRDNVKNSLYLQMTSLRVEDTAVYYCTRDNWNYEYWGQGTLVTVSS | 17
12812B scFv (VK-VH) (scFv, CHO supernatant; Vk-3xG4S-Vh) scFv: DIQMTQSPPSVSASVGDRVTITCRASQGISSWLAWYQQKPGKAPKLLIYAASSLQSGVPSRFSGSGSGTDFTLTISSLQPEDFATYYCQQANSFPRTFGQGTKVEIKGGGGSGGGGSGGGGSQVQLVQSGAEVKKPGSSVRVSCKASRGTFSSYAISWVRQAPGQGLEWMGGIIPIFGTANYAQKFLARVTITADESTSTAYMELSSLRSEDTAVYYCAREKGWNYFDYWGQGTLVTVSS | 12
12834B Fab (Fab, V domains shown, CHO supernatant) VH: QVQLVQSGAEVKKPGASVKVSCKASGYTFTSYGISWVRQAPGQGLEWMGWISVYHGNTNYAQKFQGRVTMTTDTSTSTAYMELRSLRSDDTAVYYCAREGYYDFWSGYYPFDYWGQGTLVTVSS VL: not shown | -2
12798B scFv (VH-VK) (scFv, CHO supernatant) scFv: EVQLVESGGDLVQPGRSLRLSCAASGFTFDDYAMHWVRQAPGKGLEWVSGISWNSATRVYADSVKGRFTISRDNAKNFLYLQMNSLRSEDTALYHCAKDMDISLGYYGLDVWGQGTTVTVSSGGGGSGGGGSGGGGSEIVMTQSPATLSVSPGERATLSCRASQTVSSNLAWYQQKPGQAPRLLIYGSSSRATGIPARFSGSGSGTEFTLTISSLQSEDFAVYYCQQYNNWPPYTFGQGTKLEIK | 0
12816B Fab (Fab, V domains shown, CHO supernatant) VH: QVQLVESGGGLVKPGGSLRLSCAASGFTFSDYYMNWIRQAPGKGLEWVSYISSSGTTIYYADSVKGRFTISRDNAKKSLYLEMNSLRAEDTAVYYCAREGYGNDYYYYGIDVWGQGTTVTVSS VL: not shown | 14
12833B Fab (Fab, V domains shown, CHO supernatant) VH: QVQLVESGGGVVQPGRSLRLSCAASGFTFSSFGMHWVRQAPGKGLEWVIFISYDGSDKYYADSVKGRFAISRDSSKNTLYLQMNSLRAEDTAVYYCAKENGILTDSYGMDVWGQGTTVTVSS VL: not shown | 64
12798B scFv (VK-VH) (scFv, CHO supernatant; Vk-3xG4S-Vh) scFv: EIVMTQSPATLSVSPGERATLSCRASQTVSSNLAWYQQKPGQAPRLLIYGSSSRATGIPARFSGSGSGTEFTLTISSLQSEDFAVYYCQQYNNWPPYTFGQGTKLEIKGGGGSGGGGSGGGGSEVQLVESGGDLVQPGRSLRLSCAASGFTFDDYAMHWVRQAPGKGLEWVSGISWNSATRVYADSVKGRFTISRDNAKNFLYLQMNSLRSEDTALYHCAKDMDISLGYYGLDVWGQGTTVTVSS | 10
12808B scFv (VH-VK) (scFv) QLQLQESGPGLVKPSETLSLTCTVSGESISSNTYYWGWIRQPPGKGLEWIGSIDYSGTTNYNPSLKSRVTISVDTSRNHFSLRLRSVTAADTAVYYCAREWGNYGYYYGMDVWGQGTTVTVSSDIQMTQSPSSLSASVGDRVTINCRASQGIRNDLGWYQQKPGKAPKRLIYAASSLQSGVPLRFSGSGSGTEFTLTINNLQPEDFATYYCLSHNSYPWTFGQGTKVEIK | 19
12808B scFv (VK-VH) (scFv, CHO supernatant; Vk-3xG4S-Vh) scFv: DIQMTQSPSSLSASVGDRVTINCRASQGIRNDLGWYQQKPGKAPKRLIYAASSLQSGVPLRFSGSGSGTEFTLTINNLQPEDFATYYCLSHNSYPWTFGQGTKVEIKGGGGSGGGGSGGGGSQLQLQESGPGLVKPSETLSLTCTVSGESISSNTYYWGWIRQPPGKGLEWIGSIDYSGTTNYNPSLKSRVTISVDTSRNHFSLRLRSVTAADTAVYYCAREWGNYGYYYGMDVWGQGTTVTVSS | 18
12798B Fab (Fab, V domains shown, CHO supernatant) VH: EVQLVESGGDLVQPGRSLRLSCAASGFTFDDYAMHWVRQAPGKGLEWVSGISWNSATRVYADSVKGRFTISRDNAKNFLYLQMNSLRSEDTALYHCAKDMDISLGYYGLDVWGQGTTVTVSS VL: not shown | 10
12795B Fab (Fab, V domains shown, CHO supernatant) VH: EVQLVESGGGLVQPGGSLRLSCATSGFTFTSYDMKWVRQAPGLGLEWVSAISGSGGNTYYADSVKGRFTISRDNSRNTLYLQMNSLRAEDTAVYYCTRSHDFGAFDYFDYWGQGTLVTVSS VL: DIQMTQSPSSLSASVGDRVTITCRASQGIRDHFGWYQQKPGKAPKRLIYAASSLHSGVPSRFSGSGSGTEFTLTISSLQPEDFATYYCLQYDTYPLTFGGGTKVEIKR | 44
12801B Fab (Fab, V domains shown, CHO supernatant) VH: EVQLLESGGALVQPGGSLRLSCAASGFTFTSYAMHWVRQAPGKGLEWVSSIRGSGGGTYSADSVKGRFTISRDNSRDTLYLQMNSVRAEDTAVYYCARSHDYGAFDFFDYWGQGTLVTVSS VL: DIQMTQSPSSLSASVGDRVTITCRASQGIRTDLGWYQQKPGKAPKRLIYAASSLQSGVPSRFSGSGSGTEFTLTISSLRPEDFATFYCLQYNSYPLTFGGGTKVEIKR | 45
12799B Fab (Fab, V domains shown, CHO supernatant) VH: QITLKESGPTLVKPTQTLTLTCTFSGFSLSTSGVGVVWIRQPPGKALEWLALIYWNDHKRYSPSLGSRLTITKDTSKNQVVLTMTNMDPVDTATYYCAHYSGSYSYYYYGLDVWGQGTTVTVSS VL: DIQMTQSPSSVSASVGDRVTITCRASQGIASWLAWYQQKPGKAPELLIYAASSLQGGVPSRFSGSGSGTDFTLTISSLQPEDFAIYYCQQANYFPWTFGQGTKVEIKR | 5
12812B Fab (Fab, V domains shown, CHO supernatant) VH: QVQLVQSGAEVKKPGSSVRVSCKASRGTFSSYAISWVRQAPGQGLEWMGGIIPIFGTANYAQKFLARVTITADESTSTAYMELSSLRSEDTAVYYCAREKGWNYFDYWGQGTLVTVSS VL: DIQMTQSPPSVSASVGDRVTITCRASQGISSWLAWYQQKPGKAPKLLIYAASSLQSGVPSRFSGSGSGTDFTLTISSLQPEDFATYYCQQANSFPRTFGQGTKVEIKR | 14

Reference: US20250049896A1 (Regeneron, published 2025)
